The text below walks through data of patent publication US20160251440A1.

Test [1] has as its target human CXCR4 (on cells, viral lipoparticles or membrane extracts) (human) (UniProt P61073). The experiment in a line: FACS, Caki-CXCR4 cells.
The target is the same in test [2]. The experiment in a line: cell-based or functional assay.
Test [3] shares this target. The experiment in a line: [125I]-SDF-1 displacement, Hek-CXCR4 membrane extracts.
For test [4] the target is unchanged. Kind of test: FACS displacement of 30 nM biotin-SDF-1, Caki-CXCR4 cells.
In test [5] the target is human IL-23R, cell-expressed (human) (UniProt Q5VWK5). Kind of test: cell-based or functional assay.
Chain of human IL-23R, cell-expressed (human) (Q5VWK5 24-629): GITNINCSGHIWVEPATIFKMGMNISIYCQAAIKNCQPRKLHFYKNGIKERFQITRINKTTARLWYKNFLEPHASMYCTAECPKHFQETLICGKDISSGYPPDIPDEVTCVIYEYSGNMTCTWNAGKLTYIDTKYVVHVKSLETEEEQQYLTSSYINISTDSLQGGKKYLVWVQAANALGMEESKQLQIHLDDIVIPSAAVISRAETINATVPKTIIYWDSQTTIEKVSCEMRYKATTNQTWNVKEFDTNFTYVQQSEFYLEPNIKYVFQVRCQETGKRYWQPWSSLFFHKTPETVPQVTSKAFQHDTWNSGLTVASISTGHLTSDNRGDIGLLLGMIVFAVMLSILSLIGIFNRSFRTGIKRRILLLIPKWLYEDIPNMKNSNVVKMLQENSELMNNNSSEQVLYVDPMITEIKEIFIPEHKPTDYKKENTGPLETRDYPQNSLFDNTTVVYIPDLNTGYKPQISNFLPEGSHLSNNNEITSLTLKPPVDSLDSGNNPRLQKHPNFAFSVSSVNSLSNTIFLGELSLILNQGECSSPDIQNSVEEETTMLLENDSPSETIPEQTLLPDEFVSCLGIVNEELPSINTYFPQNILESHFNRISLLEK
Test [6] concerns the target human CXCR4 (on cells, viral lipoparticles or membrane extracts) (human) (UniProt P61073). Kind of test: ELISA on coated CXCR4 viral lipoparticles (upper right panel). A general note: ELISA stands for enzyme-linked immunosorbent assay.
Test [7] deals with recombinant IL-3Rα ectodomain (human) (UniProt P26951). The experiment in a line: ELISA on recombinant IL-3Ra ectodomain (panel 'IL-3Ra ELISA', lower left).
Chain of recombinant IL-3Rα ectodomain (human) (P26951 19-305): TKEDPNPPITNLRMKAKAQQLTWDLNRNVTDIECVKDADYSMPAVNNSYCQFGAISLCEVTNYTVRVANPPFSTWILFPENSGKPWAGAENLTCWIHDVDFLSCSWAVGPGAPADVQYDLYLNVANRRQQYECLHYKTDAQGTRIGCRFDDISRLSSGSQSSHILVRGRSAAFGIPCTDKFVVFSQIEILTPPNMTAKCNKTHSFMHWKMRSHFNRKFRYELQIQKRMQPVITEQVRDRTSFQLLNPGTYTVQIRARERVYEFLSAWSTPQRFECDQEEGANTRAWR

Chain of human CXCR4 (on cells, viral lipoparticles or membrane extracts) (human) (P61073 whole entry, the tested form may be a part): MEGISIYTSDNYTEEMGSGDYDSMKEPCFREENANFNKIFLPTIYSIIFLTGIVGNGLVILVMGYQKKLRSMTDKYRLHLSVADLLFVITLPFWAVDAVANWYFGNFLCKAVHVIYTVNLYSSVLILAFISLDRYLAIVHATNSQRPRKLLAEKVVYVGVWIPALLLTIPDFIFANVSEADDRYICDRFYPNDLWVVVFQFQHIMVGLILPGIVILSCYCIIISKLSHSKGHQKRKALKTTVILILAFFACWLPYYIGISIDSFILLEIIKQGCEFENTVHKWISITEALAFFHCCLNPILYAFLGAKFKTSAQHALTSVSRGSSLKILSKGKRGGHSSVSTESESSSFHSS

B1: 238D4 (VHH, from a related filing)
VHH: EVQLMESGGGLVQAGGSLRLSCAASGRTFNNYAMGWFRRAPGKEREFVAAITRSGVRSGVSAIYGDSVKDRFTISRDNAKNTLYLQMNSLKPEDTAVYTCAASAIGSGALRRFEYDYSGQGTQVTVSS
For orientation: EC50 means the concentration at which the effect is half-maximal. For orientation: Ki means a measure of affinity in units of concentration, obtained from inhibition or displacement. The term IC50 denotes the midpoint of a concentration-inhibition curve. Read a high IC50 as a need for much substance. B1 showed an EC50 in test [1] of 3.4 nM. This molecule registered an IC50, SDF-1 chemotaxis, Jurkat in test [2] of 7.6 nM. This molecule gave a Ki in test [3] of 5.4 nM. Besides, in test [4], the IC50 turned out to be 2.1 nM.

B2: IL23R#19-35GS-CD4#8 (bispecific antibody)
chain: EVQLVESGGGLVQPGGSLTLSCVASGRTFSTDVMGWFRQAPGKEREFVAAHRTSGISTVYAASVKGRFTISRDNAKNTVYLGMKSLKPEDTAVYVCAAGSDASGGYDYWGQGTLVTVSSGGGGSGGGGSGGGGSGGGGSGGGGSGGGGSGGGGSEVQLVESGGGSVQPGGSLTLSCGTSGRTFNVMGWFRQAPGKEREFVAAVRWSSTGIYYTQYADSVKSRFTISRDNAKNTVYLEMNSLKPEDTAVYYCAADTYNSNPARWDGYDFRGQGTLVTVSS
In the case of B2, in test [5], the IC50, IL-17 release, PBMC D840 was found to be 58.9 nM and the fold ctrl, IL-17 release was 1.7 fold.

B3: 14D09-35GS-55A01 (bispecific antibody)
chain: EVQLVESGGGLVQAGGSLRLSCVASGISSSKRNMGWYRQAPGKQRESVATISSGGNKDYTDAVKDRFTISRDTTKNTVYLQMNSLKPEDTAVYYCKIEAGTGWATRRGYTYWGQGTLVTVSSGGGGSGGGGSGGGGSGGGGSGGGGSGGGGSGGGGSEVQLVESGGGSVQAGGSLRLSCTTSGRALNMYVMGWFRQAPGNEREFVAATSSSGGSTSYPDSVKGRFTISRDNAKNTVYLQMNSLKPEDTAAYRCAASPYVSTPTMNILEEYRYWGQGTLVTVSS
A word on the EC50 (read off the curve): it is the concentration giving half of the maximal effect. On to B3, for which, in test [2], the Fold inc. vs CXCR4#1, Jurkat E6-1 turned out to be 0.87 fold; the Fold inc. vs CXCR4#1, MOLM-13 is 2.39 fold; the IC50, CXCL-12 chemotaxis, Jurkat E6-1 is 12 nM; the IC50, CXCL-12 chemotaxis, MOLM-13 was determined as 3.6 nM. In addition, in test [6], the concentration giving a half-maximal response (EC50 (read off the curve)) came out at 7 nM. In test [7], the EC50 (read off the curve) came out at 1 nM.
